Data on five substances can be found in patent publication US20150086580A1.

Usually Kd stands for the constant that tells how readily two partners part at equilibrium. A higher Kd goes with a looser complex.

Test [1] addresses H77c core-E1E2 HCVpp (HCV E1E2 with HVR1) (Hepatitis C virus genotype 1a, isolate H77C). The test is described as follows: binding affinity to HCVpp (method not given).
Test [2] deals with H77c core-E1ΔHVR1E2 HCVpp (HCV E1E2 without HVR1) (Hepatitis C virus genotype 1a, isolate H77C) (UniProt P27958). Kind of test: binding affinity to HCVpp (method not given).

On to CBH-7 (antibody), for which the Kd in test [1] was determined as 0.24 nM; in test [2] it was 0.08 nM.

As to CBH-4D (antibody), the figures for the Kd in test [1] and in test [2] were 0.84 nM and 0.48 nM, respectively.

As for CBH-5 (antibody), the Kd in test [1] was determined as 4 nM; in test [2] it was 0.56 nM.

As to CBH-23 (antibody), the Kd in test [1] is 0.17 nM; in test [2] it was 0.09 nM.

As for CBH-4G (antibody), the values for the Kd in test [1] and in test [2] were 5.43 nM and 5.29 nM, respectively.
